Measured values taken from article PMC10918085, “Cryo-EM structures reveal how phosphate release from Arp3 weakens actin filament branches formed by Arp2/3 complex” (Nature Communications, 2024).

T1: ARPC1 of S. pombe Arp2/3 complex (S. pombe, UniProt P78774 1-377)
T1 construct: ARPC1 subunit of S. pombe Arp2/3 complex; Seen within the whole complex in the branch junction
T1 sequence: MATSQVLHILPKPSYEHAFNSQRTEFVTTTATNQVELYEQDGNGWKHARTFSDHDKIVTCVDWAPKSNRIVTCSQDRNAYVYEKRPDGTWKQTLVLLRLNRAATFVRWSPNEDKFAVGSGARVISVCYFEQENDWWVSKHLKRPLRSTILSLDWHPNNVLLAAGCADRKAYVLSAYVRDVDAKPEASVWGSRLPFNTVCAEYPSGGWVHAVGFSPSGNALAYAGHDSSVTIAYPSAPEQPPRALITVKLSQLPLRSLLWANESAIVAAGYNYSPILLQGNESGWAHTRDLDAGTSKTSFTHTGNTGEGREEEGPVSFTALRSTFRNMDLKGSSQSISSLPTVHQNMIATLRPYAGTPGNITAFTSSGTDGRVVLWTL


What was measured:
Conditions in all cases: both partners purified
[1] = biological target: T2, Arp2 of S. pombe Arp2/3 complex (S. pombe, UniProt Q9UUJ1 1-390); test: cryo-EM structure; ADP state: branch junctions of capped rabbit actin filaments with GCN4-VCA-activated S. pombe Arp2/3 complex, aged ~90 min; ADP on actin and Arp3, ATP on Arp2; 2.7 Å
T2 construct: Arp2 subunit of S. pombe Arp2/3 complex; Seen within the whole complex in the branch junction

[2] = biological target: T2, Arp2 of S. pombe Arp2/3 complex; test: cryo-EM structure; ADP-BeFx state: branch junctions prepared as for the ADP state, with 2 mM BeFx (2 mM BeSO4 and 10 mM NaF) added during daughter filament formation; ADP-BeFx on Arp3, ATP on Arp2; 3.2 Å
[3] = biological target: T1, ARPC1 of S. pombe Arp2/3 complex; test: as above

T2 sequence (Q9UUJ1 whole entry, one chain of several): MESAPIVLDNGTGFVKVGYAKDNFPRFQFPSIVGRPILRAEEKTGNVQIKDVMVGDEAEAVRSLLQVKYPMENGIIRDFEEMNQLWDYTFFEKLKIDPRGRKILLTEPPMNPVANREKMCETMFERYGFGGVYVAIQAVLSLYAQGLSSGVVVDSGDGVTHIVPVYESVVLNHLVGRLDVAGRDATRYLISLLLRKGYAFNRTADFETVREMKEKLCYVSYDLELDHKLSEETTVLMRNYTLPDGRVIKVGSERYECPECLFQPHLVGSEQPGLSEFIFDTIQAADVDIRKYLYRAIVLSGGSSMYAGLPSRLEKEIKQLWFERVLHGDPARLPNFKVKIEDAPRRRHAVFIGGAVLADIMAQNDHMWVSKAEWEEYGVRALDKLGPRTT

| binding result [1] | binding result [2] | binding result [3] | Binder |
| --- | --- | --- | --- |
| binds | – | – | ARPC3 of S. pombe Arp2/3 complex (natural protein, ARPC3 subunit of S. pombe Arp2/3 complex; Seen within the whole complex in the branch junction) MPAYHSSFLSLTDVPTTGNIAMLPLKTKFRGPAYPADESQMDIIDECIGLFRANCFFRNFEIKGPADRTLIYGTLFISECLGRVNGLNYRDAERQLNSLALENFSIPGSAGFPLNALYAPPLSPQDAEIMRTYLTQFRQELAYRLLSHVYATEKDHPSKWWTCFSKRRFMNKAL |
| – | binds | binds | ARPC2 of S. pombe Arp2/3 complex (natural protein, ARPC2 subunit of S. pombe Arp2/3 complex; Seen within the whole complex in the branch junction) MLSLDYNNIFIYELLTERFSSENPSSIDQVVTDFDGVTFHISTPEEKTKILISLSMKCYPELVNYGTLDLLKQIYGAYVHEPEMGYNFSILIDLQQLPATDEEKEQLAMSISMLKRNVLAAPFHRAFTKQAELADLARKDPENAPMLDKQATSQELMAIHYRDEETIVLWPEHDRVTVVFSTKFREETDRIFGKVFLQEFVDARRRPAIQTAPQVLFSYRDPPLEIRDIQGIQKGDDFGFVTFVLFERHFTPQNREDCISHIQVFRNTLHFHIKASKAYMHQRMRKRVADFQKVLNRAKPDVELERKTATGRSFVRA |
